Among the data in PMC10680704 are EC50 of mCherry uptake by K562 cells values, retold here.

The target of the assay is IGF2R ectodomain, recombinant, AlexaFlour488-labeled (UniProt P11717).

As to “G2 mCherry GELYTAC (IGF2 E6R, F19L, S39P), recombinant”, the EC50 of mCherry uptake by K562 cells came to 16 nM. For “mCherry GELYTAC (original, wild-type IGF2), recombinant” the value was 101 nM.
